Reference: patent US8148141B2, “Peptide-immobilized substrate and method for measuring target protein” (HiPep Laboratories, priority 2001, dated 2012)
Ends that are not written are not given here. Rf = not defined here

Assays:
[1] = molecular target: calmodulin (Homo sapiens, UniProt P0DP23); test: calmodulin measurement with immobilized fluorescent-labeled α-helix peptide chip; assay type: binding; conditions: carboxyfluorescein peptide; exciting 490 nm, detection 520 nm; in the presence of calmodulin; 25° C., 5 minutes
Experimental: As schematically shown in FIG. 3, calmodulin was measured using a peptide chip in which peptides having α-helix structure, each of which both termini were labeled with different fluorescent labels, were immobilized on a substrate. The procedures were carried out as follows:
The sequence of the core region of the peptides, which forms α-helix structure was designed by molecular modeling using a computer (molecular modeling using Insight II/Discover, Molecular Simulation, U.S.) based on the amino acid sequence of the peptide described in a reference (K. T. O'Neil and W. F. DeGrado, Trend Biochem Sci, 15, 59-64 (1990)). As a result, the amino acid sequence Leu-Lys-Lys-Leu-Leu-Lys-Leu-Leu-Lys-Lys-Leu-Leu-Lys-Leu (SEQ ID NO:1) was employed as the amino acid sequence of the core region. […]

[2] = tested on: amylase; test: amylase measurement with immobilized fluorescent-labeled β-loop peptide chip; assay type: binding; conditions: carboxyfluorescein group; exciting 490 nm, detection 520 nm; amylase 1.0 μM, Tris buffer pH7.4, 150 mM NaCl; 25° C., 5 minutes
Experimental: As schematically shown in FIG. 4, amylase was measured using a peptide chip in which a peptide whose one terminus was labeled with a fluorescent label, which peptide has β-loop structure, was immobilized on a substrate. The procedures were carried out as follows:
As in Example 1, as schematically shown in FIG. 4, a peptide which forms β-loop structure was designed by molecular modeling using a computer based on the amino acid sequence of the peptide described in a reference (F. J. Blanco et al., Eur J Biochem 200, 345-351 (1991), S. Ono et al, Biosci Biotechnol Biochem, 62, 1621-1623 (1998)). As a result, as the amino acid sequence of the core region, the sequence Tyr-Gln-Ser-Trp-Arg-Tyr-Ser-Gln-Ala (SEQ ID NO: 5) was employed. The peptide having this sequence to which Cys residue as an anchor for immobilization was added to one terminus, and to which Lys residue having a fluorescent group Rf (fluorescent group such as carboxyfluorescein in FIG. 4) was added to another terminus, was synthesized. […] When carboxyfluorescein group was used, fluorescence measurement was performed employing exciting wavelength of 490 nm and detection wavelength of 520 nm. By adding an amylase solution (Tris buffer pH7.4, 150 mM NaCl, amylase concentration: 1.0 μM), about ten times increase of the fluorescence intensity was measured, so that the amylase was able to be detected and quantified. […]

increase of the fluorescence intensity [1]	increase of the fluorescence intensity [2]	Substance
about ten		Lys(Rf3)-Leu-Lys-Lys-Leu-Leu-Lys-Leu-Leu-Lys-Lys-Leu-Leu-Lys-Leu-Cys-NH2 (K(carboxyfluorescein)LKKLLKLLKKLLKLC-NH2) [peptide containing carboxylfluorescein, Rf3 carboxyfluorescein group]
	about ten	Lys(Rf)-Tyr-Gln-Ser-Trp-Arg-Tyr-Ser-Gln-Ala-Cys-NH2 (K(Rf)YQSWRYSQAC-NH2; reading uncertain; also: printed as Lys(Rf)-Tyr-Gln-Ser-Trp-Arg-Tyr-Ser-Gln-Ala-Cys-NH2) [SEQ ID NO: 6, Rf fluorescent group such as carboxyfluorescein]
